Values quoted from earlier work in publication PMC10570509.

Molecular target: OSMRβ (Homo sapiens) (UniProt Q99650)
Chain of UniProt Q99650 (Q99650 28-740): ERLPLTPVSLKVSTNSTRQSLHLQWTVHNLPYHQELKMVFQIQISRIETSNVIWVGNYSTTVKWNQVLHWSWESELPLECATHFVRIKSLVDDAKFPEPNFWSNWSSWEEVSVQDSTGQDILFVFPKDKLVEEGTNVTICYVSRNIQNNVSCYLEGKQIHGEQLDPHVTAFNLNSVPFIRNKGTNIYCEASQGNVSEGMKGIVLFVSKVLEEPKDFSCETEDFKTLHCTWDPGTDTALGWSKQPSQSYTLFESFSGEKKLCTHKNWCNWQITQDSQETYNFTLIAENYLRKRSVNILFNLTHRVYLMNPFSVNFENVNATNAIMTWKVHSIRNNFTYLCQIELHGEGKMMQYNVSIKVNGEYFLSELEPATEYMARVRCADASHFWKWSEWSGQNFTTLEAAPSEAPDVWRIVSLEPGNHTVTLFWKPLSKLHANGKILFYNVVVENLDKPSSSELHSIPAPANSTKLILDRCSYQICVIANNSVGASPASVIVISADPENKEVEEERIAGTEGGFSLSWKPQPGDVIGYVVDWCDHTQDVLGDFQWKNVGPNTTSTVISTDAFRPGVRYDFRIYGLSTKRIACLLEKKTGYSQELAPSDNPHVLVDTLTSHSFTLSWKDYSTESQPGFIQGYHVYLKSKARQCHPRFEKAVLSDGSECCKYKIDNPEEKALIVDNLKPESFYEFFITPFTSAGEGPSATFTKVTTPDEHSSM

Which Kd does the source give for Oncostatin M (from UniProt P13725) here?
Its Kd is 0.15 nM.
